# From patent US20210130473A1, “TGFßR1 INHIBITOR-ASGR ANTIBODY CONJUGATES AND USES THEREOF” (Silverback Therapeutics, Inc., priority 2019, published 2021)
# T1: HepG2 cells (which express ASGR1) (Homo sapiens, UniProt P07306)
# T1 construct: endogenous in cells; host or cells: HepG2
# T1 sequence (P07306 1-291): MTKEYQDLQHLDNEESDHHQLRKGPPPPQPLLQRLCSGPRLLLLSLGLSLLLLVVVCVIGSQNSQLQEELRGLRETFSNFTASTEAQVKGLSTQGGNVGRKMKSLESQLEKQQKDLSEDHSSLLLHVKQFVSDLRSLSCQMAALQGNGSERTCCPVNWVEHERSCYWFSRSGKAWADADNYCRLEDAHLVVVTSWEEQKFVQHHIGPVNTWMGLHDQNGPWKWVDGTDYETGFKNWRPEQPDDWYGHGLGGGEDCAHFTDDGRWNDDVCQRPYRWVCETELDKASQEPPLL
# Target: T1, HepG2 cells (which express ASGR1)
# Experiment: Guava HepG2 cell binding screen of anti-ASGR1 mAbs
# Details: humanized L4L clones; Good / Poor
# Procedure: Additionally, hybridomas producing monoclonal antibodies (mAbs) specific for human ASGR1 were prepared from Balb/C mice immunized with ASGR1-AviHis at a service provider using their propriety protocol. Antibody heavy and light chain sequences were obtained, amplified, and cloned. Clone supernatants containing the expressed mAbs were screened for binding to a human ASGR1-IgG1Fc fusion protein, and those with a positive signal as measured by enzyme linked immunosorbent assay (ELISA) were screened for cell binding on HepG2 cells (which express ASGR1). […] The isolated mAbs were further analyzed for the additional characteristics including, for example, titer, low aggregate content following protein A purification, high titer, lack of cross-blocking of ligand GalNac, calcium sensitivity, and cross-reactivity with rat ASGR1 protein.
row,Guava HepG2 Screen,Molecule
1,Good,"hzL4L-2: humanized L4L clone: ""reduction in percent purity ... seen with the chimeric and hzL4L-1, -2 and -6"" (antibody, V domains shown) VH: QVQLQESGPGLVKPSQTLSLTCTVSGGSITSDYAWNWIRQHPGKGLEWIGYISYSGSTRYNPSLKSRISITRDTSKNQFSLKLSSVTAADTAVYYCARRYRYDEGYGMDYWGQGTTVTVSS VL: DIQMTQSPSSLSASVGDRVTITCRASENIYSNLAWYQQKPGKAPKLLIYAATNLADGVPSRFSGSGSGTDFTLTISSLQPEDFATYYCQHFWGTPPWTFGGGTKVEIK"
2,Poor,"hzL4L-8 (antibody, V domains shown) VH: QVQLQESGPGLVKPSQTLSLTCTVSGYSITSDYAWNWIRQHPGKGLEWIGYISYSGSTRYNPSLKSRISISVDTSKNQFSLKLSSVTAADTAVYYCARRYRYDEGYGMDYWGQGTTVTVSS VL: DIQMTQSPSSLSASVGDRVTITCRASENIYSNLAWYQQKPGKAPKLLIYAATNLADGVPSRFSGSGSGTDFTLTISSLQPEDFATYYCQHFWGTPPWTFGGGTKVEIK"
3,Good,"hzL4L-10: ""Humanized sequences hzL4L-10 through hzL4L-14 were further modified by adding additional mutations in the light chain CDR2/FR3 junction, namely D56S ..., D56E ... or G57A"" (antibody, V domains shown) VH: QVQLQESGPGLVKPSQTLSLTCTVSGYSITSDYAWNWIRQHPGKGLEWIGYISYSGSTRYNPSLKSRISITRDTSKNQFSLKLSSVTAADTAVYYCARRYRYDEGYGMDYWGQGTTVTVSS VL: DIQMTQSPSSLSASVGDRVTITCRASENIYSNLAWYQQKPGKAPKLLIYAATNLASGVPSRFSGSGSGTDFTLTISSLQPEDFATYYCQHFWGTPPWTFGGGTKVEIK"
4,Poor,"hzL4L-4 (antibody, V domains shown) VH: QVQLQESGPGLVKPSQTLSLTCTVSGYSITSDYAWNWIRQHPGKGLEWIGYISYSGSTRYNPSLKSRVTISVDTSKNQFSLKLSSVTAADTAVYYCARRYRYDEGYGMDYWGQGTTVTVSS VL: DIQMTQSPSSLSASVGDRVTITCRASENIYSNLAWYQQKPGKAPKLLIYAATNLADGVPSRFSGSGSGTDFTLTISSLQPEDFATYYCQHFWGTPPWTFGGGTKVEIK"
5,Good,"hzL4L-3 (antibody, V domains shown) VH: QVQLQESGPGLVKPSQTLSLTCTVSGYSITSDYAWNWIRQHPGKGLEWIGYISYSGSTRYNPSLKSRISITRDTSKNQFSLKLSSVTAADTAVYYCARRYRYDEGYGMDYWGQGTTVTVSS VL: DIQMTQSPSSLSASVGDRVTITCRASENIYSNLAWYQQKPGKAPKLLIYAATNLADGVPSRFSGSGSGTDFTLTISSLQPEDFATYYCQHFWGTPPWTFGGGTKVEIK"

# Continued, molecule first:
row,Molecule,Guava HepG2 Screen
1,"hzL4L-11: ""Humanized sequences hzL4L-10 through hzL4L-14 were further modified by adding additional mutations in the light chain CDR2/FR3 junction, namely D56S ..., D56E ... or G57A"" (antibody, V domains shown) VH: QVQLQESGPGLVKPSQTLSLTCTVSGYSITSDYAWNWIRQHPGKGLEWIGYISYSGSTRYNPSLKSRISITRDTSKNQFSLKLSSVTAADTAVYYCARRYRYDEGYGMDYWGQGTTVTVSS VL: DIQMTQSPSSLSASVGDRVTITCRASENIYSNLAWYQQKPGKAPKLLIYAATNLAEGVPSRFSGSGSGTDFTLTISSLQPEDFATYYCQHFWGTPPWTFGGGTKVEIK",Good
2,"hzL4L-6: humanized L4L clone: ""reduction in percent purity ... seen with the chimeric and hzL4L-1, -2 and -6"" (antibody, V domains shown) VH: QVQLQESGPGLVKPSQTLSLTCTVSGYSITSDYAWNWIRQHPGKGLEWIGYISYSGSTRYNPSLKSRVTITRDTSKNQFSLKLSSVTAADTAVYYCARRYRYDEGYGMDYWGQGTTVTVSS VL: DIQMTQSPSSLSASVGDRVTITCRASENIYSNLAWYQQKPGKAPKLLIYAATNLADGVPSRFSGSGSGTDFTLTISSLQPEDFATYYCQHFWGTPPWTFGGGTKVEIK",Good
3,"hzL4L-9 (antibody, V domains shown) VH: QVQLQESGPGLVKPSQTLSLTCTVSGYSISSDYAWNWIRQHPGKGLEWIGYISYSGSTRYNPSLKSRISISVDTSKNQFSLKLSSVTAADTAVYYCARRYRYDEGYGMDYWGQGTTVTVSS VL: DIQMTQSPSSLSASVGDRVTITCRASENIYSNLAWYQQKPGKAPKLLIYAATNLADGVPSRFSGSGSGTDFTLTISSLQPEDFATYYCQHFWGTPPWTFGGGTKVEIK",Poor
4,"hzL4L-5 (antibody, V domains shown) VH: QVQLQESGPGLVKPSQTLSLTCTVSGYSISSDYAWNWIRQHPGKGLEWIGYISYSGSTRYNPSLKSRISITRDTSKNQFSLKLSSVTAADTAVYYCARRYRYDEGYGMDYWGQGTTVTVSS VL: DIQMTQSPSSLSASVGDRVTITCRASENIYSNLAWYQQKPGKAPKLLIYAATNLADGVPSRFSGSGSGTDFTLTISSLQPEDFATYYCQHFWGTPPWTFGGGTKVEIK",Good
